Reference: US11260115B1, “Peptides and combination of peptides for use in immunotherapy against CLL and other cancers” (immatics biotechnologies GmbH, priority 2015, dated 2022)

Molecular target: HLA-A*02:01 (Homo sapiens, UniProt P04439, D140Y/D185E/D98H/E176V/E277Q/G131W/G231S/I119V/I121R/I166T/I218V/L300P/L318F/N151K/N90K/P208A/P217A/Q86G/Q94H/R138H/R169H/T345S)
Experiment: MHC binding assay (UV-ligand exchange, β2m ELISA, peptide exchange yield)
Conditions: binding to HLA-A*02:01
Outline: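 Peptide-HLA-A*02:01 complexes formed by UV-mediated exchange of a photocleavable ligand; exchange yield measured by streptavidin-capture ELISA detecting β2m with HRP anti-β2m, TMB read at 450 nm. Refolded monomer standards 15-500 ng/ml; samples diluted 100-fold.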

| Substance | Peptide Exchange (MHC class I binding score, peptide exchange yield) |
| --- | --- |
| 268 (TLLQVFHLL; listed as Homo sapiens) [compound 268] | “+++” (>50 = +++) |
| 269 (TLTDEQFLV; listed as Homo sapiens) [compound 269] | “++” (>20% = ++) |
| 270 (TVLPVPPLSV; listed as Homo sapiens) [compound 270] | “+++” (>50 = +++) |
| 271 (VIRNIVEAA; listed as Homo sapiens) [compound 271] | “++” (>20% = ++) |
| 272 (VLDELPPLI; listed as Homo sapiens) [compound 272] | “+++” (>50 = +++) |
| 273 (VLGEYSYLL; listed as Homo sapiens) [compound 273] | “+++” (>50 = +++) |
| 274 (VLLEYHIAYL; listed as Homo sapiens) [compound 274] | “+++” (>50 = +++) |
| 275 (VLLFIEHSV; listed as Homo sapiens) [compound 275] | “+++” (>50 = +++) |
| 276 (VLNDGAPNV; listed as Homo sapiens) [compound 276] | “+++” (>50 = +++) |
| 277 (VMILKLPFL; listed as Homo sapiens) [compound 277] | “++” (>20% = ++) |
| 278 (YLDDLLPKL; listed as Homo sapiens) [compound 278] | “+++” (>50 = +++) |
| 279 (YMAPEVVEA; listed as Homo sapiens) [compound 279] | “+++” (>50 = +++) |
| 280 (YTLDSLYWSV; listed as Homo sapiens) [compound 280] | “+++” (>50 = +++) |
| 282 (LLRDGIELV; listed as Homo sapiens) [compound 282] | “+++” (>50 = +++) |
| 283 (ILQPMDIHV; listed as Homo sapiens) [compound 283] | “+++” (>50 = +++) |
| 284 (LLSAAEPVPA; listed as Homo sapiens) [compound 284] | “++” (>20% = ++) |
| 285 (GVATAGCVNEV; listed as Homo sapiens) [compound 285] | “++++” (>75% = ++++) |
| 286 (FLLEDLSQKL; listed as Homo sapiens) [compound 286] | “+++” (>50 = +++) |
| 287 (FLWEEKFNSL; listed as Homo sapiens) [compound 287] | “++++” (>75% = ++++) |
| 288 (GLAESTGLLAV; listed as Homo sapiens) [compound 288] | “+++” (>50 = +++) |
| 289 (ILEEQPMDMLL; listed as Homo sapiens) [compound 289] | “+++” (>50 = +++) |
| 291 (ILLNEDDLVTI; listed as Homo sapiens) [compound 291] | “+++” (>50 = +++) |
| 292 (AAALIIHHV; listed as Homo sapiens) [compound 292] | “+++” (>50 = +++) |
| 293 (ALDIMIPMV; listed as Homo sapiens) [compound 293] | “+++” (>50 = +++) |
| 294 (ALLDQLHTLL; listed as Homo sapiens) [compound 294] | “++++” (>75% = ++++) |

| Substance | Peptide Exchange (MHC class I binding score, peptide exchange yield) |
| --- | --- |
| 295 (ALLQKLQQL; listed as Homo sapiens) [compound 295] | “+++” (>50 = +++) |
| 296 (FIAPTGHSL; listed as Homo sapiens) [compound 296] | “++” (>20% = ++) |
| 297 (FLVEPQEDTRL; listed as Homo sapiens) [compound 297] | “+++” (>50 = +++) |
| 298 (IILPVEVEV; listed as Homo sapiens) [compound 298] | “+++” (>50 = +++) |
| 299 (ILEENIPVL; listed as Homo sapiens) [compound 299] | “+++” (>50 = +++) |
| 300 (ILLNPAYDVYL; listed as Homo sapiens) [compound 300] | “+++” (>50 = +++) |
| 301 (AASPIITLV; listed as Homo sapiens) [compound 301] | “+++” (>50 = +++) |
| 302 (ILQDLTFVHL; listed as Homo sapiens) [compound 302] | “+++” (>50 = +++) |
| 303 (ILSQPTPSL; listed as Homo sapiens) [compound 303] | “+++” (>50 = +++) |
| 304 (LAIVPVNTL; listed as Homo sapiens) [compound 304] | “+” (>10% = +) |
| 305 (LLFPQIEGIKI; listed as Homo sapiens) [compound 305] | “+++” (>50 = +++) |
| 306 (VVAEELENV; listed as Homo sapiens) [compound 306] | “++” (>20% = ++) |
| 308 (SLYDVSRMYV; listed as Homo sapiens) [compound 308] | “++++” (>75% = ++++) |
| 309 (ILYGTQFVL; listed as Homo sapiens) [compound 309] | “+++” (>50 = +++) |
| 310 (LLSTLHLLV; listed as Homo sapiens) [compound 310] | “+++” (>50 = +++) |
| 311 (LLVDVEPKV; listed as Homo sapiens) [compound 311] | “+++” (>50 = +++) |
| 312 (LLYNSTDPTL; listed as Homo sapiens) [compound 312] | “+++” (>50 = +++) |
| 313 (LMADLEGLHL; listed as Homo sapiens) [compound 313] | “+++” (>50 = +++) |
| 314 (LMKDCEAEV; listed as Homo sapiens) [compound 314] | “+++” (>50 = +++) |
| 315 (LVYEAPETV; listed as Homo sapiens) [compound 315] | “+++” (>50 = +++) |
| 316 (MLLEHGITL; listed as Homo sapiens) [compound 316] | “+++” (>50 = +++) |
| 317 (NLLAHIWAL; listed as Homo sapiens) [compound 317] | “+++” (>50 = +++) |
| 318 (NLQVTQPTV; listed as Homo sapiens) [compound 318] | “+++” (>50 = +++) |
| 319 (QVIPQLQTV; listed as Homo sapiens) [compound 319] | “+++” (>50 = +++) |
| 321 (RLLEFELAQL; listed as Homo sapiens) [compound 321] | “+++” (>50 = +++) |
